Reference: patent publication US20090048164A1
Read-outs that look alike come from different tables or passages of the source.

Key:
[1] = target: Recombinant human Bcl-xL with a 25 amino acid truncation of its C-terminus (human) (UniProt Q07817); experiment: competition phage ELISA
[2] = target: mouse Mcl-1 with truncations of 151 amino acid residues at its N-terminus and 23 residues at its C-terminus (mouse) (UniProt P97287); experiment: competition phage ELISA
[3] = target: Recombinant human Bcl-xL with a 25 amino acid truncation of its C-terminus (human) (UniProt Q07817); experiment: Bim BH3 substitution scan
[4] = target: Recombinant human Bcl-xL with a 25 amino acid truncation of its C-terminus (human) (UniProt Q07817); experiment: competition phage ELISA; remark: listed apart in the source
Bcl-w [5] = experiment: competition phage ELISA
Sequence of Bcl-w (Q92843 1-164): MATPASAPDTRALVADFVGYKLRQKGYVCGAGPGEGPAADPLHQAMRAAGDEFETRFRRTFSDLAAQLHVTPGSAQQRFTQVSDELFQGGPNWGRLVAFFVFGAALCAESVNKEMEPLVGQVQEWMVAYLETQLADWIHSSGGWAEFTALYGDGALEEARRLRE

pro-survival proteins = experiment: cell-based or functional assay
Bcl-w [6] = experiment: Biacore competition vs immobilised BimBH3
Bcl-2 [7] = experiment: Biacore competition vs immobilised BimBH3
Sequence of Bcl-2 (P10415 1-217): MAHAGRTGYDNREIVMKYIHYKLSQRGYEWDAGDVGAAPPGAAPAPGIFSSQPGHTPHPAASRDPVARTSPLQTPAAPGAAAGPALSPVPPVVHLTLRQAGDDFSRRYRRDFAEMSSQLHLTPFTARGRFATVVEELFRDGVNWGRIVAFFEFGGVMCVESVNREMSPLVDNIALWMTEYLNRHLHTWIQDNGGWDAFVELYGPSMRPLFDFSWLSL

[8] = target: Recombinant human Bcl-xL with a 25 amino acid truncation of its C-terminus (human) (UniProt Q07817); experiment: Biacore competition vs immobilised BimBH3
A1 [9] = experiment: Biacore competition vs immobilised BimBH3
[10] = target: mouse Mcl-1 with truncations of 151 amino acid residues at its N-terminus and 23 residues at its C-terminus (mouse) (UniProt P97287); experiment: Biacore competition vs immobilised BimBH3
A1 [11] = experiment: Biacore competition, synthetic peptides
[12] = target: mouse Mcl-1 with truncations of 151 amino acid residues at its N-terminus and 23 residues at its C-terminus (mouse) (UniProt P97287); experiment: Biacore competition, synthetic peptides
Bcl-w [13] = experiment: Biacore competition, synthetic peptides; against wild-type BimBH3 peptide
Bcl-2 [14] = experiment: as above
[15] = target: Recombinant human Bcl-xL with a 25 amino acid truncation of its C-terminus (human) (UniProt Q07817); experiment: as above
A1 [16] = experiment: as above
[17] = target: mouse Mcl-1 with truncations of 151 amino acid residues at its N-terminus and 23 residues at its C-terminus (mouse) (UniProt P97287); experiment: as above
Bcl-2 [18] = experiment: competition phage ELISA

Sequence of mouse Mcl-1 with truncations of 151 amino acid residues at its N-terminus and 23 residues at its C-terminus (mouse) (P97287 152-308): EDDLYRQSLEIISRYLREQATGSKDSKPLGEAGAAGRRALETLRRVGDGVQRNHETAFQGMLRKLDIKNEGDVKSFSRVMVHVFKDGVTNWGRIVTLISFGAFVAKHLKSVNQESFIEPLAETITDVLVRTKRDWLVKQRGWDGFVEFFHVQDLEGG
Sequence of Recombinant human Bcl-xL with a 25 amino acid truncation of its C-terminus (human) (Q07817 1-208): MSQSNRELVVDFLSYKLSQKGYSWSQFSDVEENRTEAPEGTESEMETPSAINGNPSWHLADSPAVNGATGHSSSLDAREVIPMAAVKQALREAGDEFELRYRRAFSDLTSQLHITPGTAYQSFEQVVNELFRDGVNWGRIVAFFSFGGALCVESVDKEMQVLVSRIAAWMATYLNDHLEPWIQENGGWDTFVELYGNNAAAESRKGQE

Substance | Fold/wt [1] [fold] | IC50 [1] [nM] | Fold/wt [2] [fold] | IC50 [2] [nM] | also measured
Bim BH3 Y23A, phage-displayed (peptide) | 1 | 4 | 1 | 12 | 
Bim BH3 L12A, phage-displayed (peptide) | 43 | 124 | 1 | 10 | fold decrease in affinity [3]: 50 to 80 fold; IC50 [4]: 130 nM; fold weaker than wild-type BimBH3 [4]: 50 fold; Fold/wt (Bcl-w [5]): 24 fold; IC50 (Bcl-w [5]): 486 nM
Bim BH3 R13A, phage-displayed (peptide) | 1 | 4 | 1 | 13 | 
BimS L12A |  |  |  |  | % viability in wild-type MEFs (pro-survival proteins): 57%
BimBH3 I8A synthetic peptide |  |  |  |  | Fold/wt BimBH3 (Bcl-w [6]): 2 fold; Fold/wt BimBH3 (Bcl-2 [7]): 3 fold; Fold/wt BimBH3 [8]: 1 fold; Fold/wt BimBH3 (A1 [9]): 1 fold; Fold/wt BimBH3 [10]: 1 fold
BimBH3 L12A synthetic peptide |  |  |  |  | Fold/wt BimBH3 (Bcl-w [6]): 31 fold; Fold/wt BimBH3 (Bcl-2 [7]): 43 fold; Fold/wt BimBH3 [8]: 11 fold; Fold/wt BimBH3 (A1 [9]): 17 fold; Fold/wt BimBH3 [10]: 1 fold; fold decrease in binding affinity (A1 [11]): 7 fold; fold decrease in binding affinity [12]: 2 fold
Bim BH3 N20A, phage-displayed (peptide) | 2 | 5 | 1 | 7 | 
BimBH3 I15A synthetic peptide |  |  |  |  | Fold/wt BimBH3 (Bcl-w [6]): 1 fold; Fold/wt BimBH3 (Bcl-2 [7]): 2 fold; Fold/wt BimBH3 [8]: 1 fold; Fold/wt BimBH3 (A1 [9]): 2 fold; Fold/wt BimBH3 [10]: 2 fold
BimBH3 F19A synthetic peptide |  |  |  |  | fold decrease in binding affinity (Bcl-w [13]): 8 fold; fold decrease in binding affinity (Bcl-2 [14]): < 3 fold; fold decrease in binding affinity [15]: < 3 fold; fold decrease in binding affinity (A1 [16]): < 3 fold; fold decrease in binding affinity [17]: < 3 fold; Fold/wt BimBH3 (Bcl-w [6]): 8 fold; Fold/wt BimBH3 (Bcl-2 [7]): 3 fold; Fold/wt BimBH3 (A1 [9]): 1 fold; Fold/wt BimBH3 [10]: 1 fold
Bim BH3 I8A, phage-displayed (peptide) | 2 | 7 | 1 | 9 | Fold/wt (Bcl-w [5]): 4 fold; IC50 (Bcl-w [5]): 74 nM; Fold/wt (Bcl-2 [18]): 3 fold; IC50 (Bcl-2 [18]): 17 nM
Bim BH3 E5A, phage-displayed (peptide) | 1 | 3 | 1 | 10 | 
Bim BH3 I6A, phage-displayed (peptide) | 3 | 8 | 1 | 11 | 
Bim BH3 D17A, phage-displayed (peptide) |  |  | 28 | 256 | fold effect on binding [2]: 15 fold
Bim BH3 I15A, phage-displayed (peptide) | 1 | 2 | 1 | 10 | Fold/wt (Bcl-w [5]): 1 fold; IC50 (Bcl-w [5]): 18 nM; Fold/wt (Bcl-2 [18]): 1 fold; IC50 (Bcl-2 [18]): 7 nM
wild-type full-length BimS |  |  |  |  | % viability in wild-type MEFs (pro-survival proteins): 19%
Bim BH3 R14A, phage-displayed (peptide) | 2 | 5 | 1 | 10 | 
Bim BH3 L12V, phage-displayed (peptide) |  |  |  |  | fold decrease in affinity [3]: 50 to 80 fold
mNoxaA BH3 D26A, phage-displayed (peptide) |  |  | 2 | 62 | 
Bim BH3 L12W, phage-displayed (peptide) |  |  |  |  | fold decrease in binding affinity [3]: 22 fold
Bim BH3 D1A, phage-displayed (peptide) | 1 | 3 | 1 | 10 | 
Bim BH3 M2A, phage-displayed (peptide) | 2 | 4 | 1 | 13 | 
Bim BH3 Q10A, phage-displayed (peptide) | 1 | 4 | 1 | 10 | 

Substance | Fold/wt [1] [fold] | IC50 [1] [nM] | Fold/wt [2] [fold] | IC50 [2] [nM] | also measured
BimBH3 L12A + F19A synthetic peptide |  |  |  |  | Fold/wt BimBH3 [8]: > 1560 fold; Fold/wt BimBH3 (A1 [9]): 120 fold; Fold/wt BimBH3 [10]: 1 fold
Bim BH3 W7A, phage-displayed (peptide) | 1 | 3 | 1 | 10 | 
Bim BH3 Y22A, phage-displayed (peptide) | 1 | 4 | 1 | 12 | 
Bim BH3 A21E, phage-displayed (peptide) | 1 | 3 | 2 | 16 | 
BimBH3 D17A synthetic peptide |  |  |  |  | Fold/wt BimBH3 (Bcl-w [6]): 30 fold; Fold/wt BimBH3 (Bcl-2 [7]): 4 fold; Fold/wt BimBH3 [8]: 3 fold; Fold/wt BimBH3 (A1 [9]): 1 fold; Fold/wt BimBH3 [10]: 2 fold
BimS G16E |  |  |  |  | % viability in wild-type MEFs (pro-survival proteins): 93%
BimS A9E |  |  |  |  | % viability in wild-type MEFs (pro-survival proteins): 55%
BimBH3 G16E synthetic peptide |  |  |  |  | Fold/wt BimBH3 (Bcl-w [6]): > 256 fold; Fold/wt BimBH3 (Bcl-2 [7]): 306 fold; Fold/wt BimBH3 [8]: 83 fold; Fold/wt BimBH3 (A1 [9]): 260 fold; Fold/wt BimBH3 [10]: 18 fold
Bim BH3 R26A, phage-displayed (peptide) | 1 | 4 | 1 | 8 | 
Bim BH3 G16E, phage-displayed (peptide) |  |  | 3 | 27 | fold effect on binding [2]: 38 fold
Bim BH3 R3A, phage-displayed (peptide) | 1 | 3 | 1 | 9 | 
Bim BH3 A24E, phage-displayed (peptide) | 1 | 2 | 1 | 8 | 
BimS F19A |  |  |  |  | % viability in wild-type MEFs (pro-survival proteins): 22%
Bim BH3 E11A, phage-displayed (peptide) | 1 | 4 | 1 | 10 | 
Bim BH3 A9E, phage-displayed (peptide) |  |  | 3 | 32 | 
Bim BH3 F19A, phage-displayed (peptide) | 24 | 69 |  | 16 | IC50 [4]: 60 nM; fold weaker than wild-type BimBH3 [4]: 20 fold; Fold/wt (Bcl-w [5]): 18 fold; IC50 (Bcl-w [5]): 364 nM; IC50 (Bcl-2 [18]): 11 nM
Bim BH3 P4A, phage-displayed (peptide) | 1 | 3 | 1 | 12 | 
Bim BH3 L12F, phage-displayed (peptide) |  |  |  |  | fold decrease in binding affinity [3]: 5 fold
BimBH3 A9E synthetic peptide |  |  |  |  | Fold/wt BimBH3 (Bcl-w [6]): 34 fold; Fold/wt BimBH3 (Bcl-2 [7]): 56 fold; Fold/wt BimBH3 [8]: 68 fold; Fold/wt BimBH3 (A1 [9]): 7 fold; Fold/wt BimBH3 [10]: 2 fold
Bim BH3 R25A, phage-displayed (peptide) | 1 | 2 | 1 | 8 | 
Bim BH3 E18A, phage-displayed (peptide) | 3 | 8 | 9 | 80 | 
